Here are results for two molecules from PMC7498065 (2020).

Some results are limits rather than exact numbers.

The target in this assay is Complement component C5 (human, UniProt P01031). Description: SPR.
Sequence of Complement component C5 (P01031 19-673, chain 1 of 2): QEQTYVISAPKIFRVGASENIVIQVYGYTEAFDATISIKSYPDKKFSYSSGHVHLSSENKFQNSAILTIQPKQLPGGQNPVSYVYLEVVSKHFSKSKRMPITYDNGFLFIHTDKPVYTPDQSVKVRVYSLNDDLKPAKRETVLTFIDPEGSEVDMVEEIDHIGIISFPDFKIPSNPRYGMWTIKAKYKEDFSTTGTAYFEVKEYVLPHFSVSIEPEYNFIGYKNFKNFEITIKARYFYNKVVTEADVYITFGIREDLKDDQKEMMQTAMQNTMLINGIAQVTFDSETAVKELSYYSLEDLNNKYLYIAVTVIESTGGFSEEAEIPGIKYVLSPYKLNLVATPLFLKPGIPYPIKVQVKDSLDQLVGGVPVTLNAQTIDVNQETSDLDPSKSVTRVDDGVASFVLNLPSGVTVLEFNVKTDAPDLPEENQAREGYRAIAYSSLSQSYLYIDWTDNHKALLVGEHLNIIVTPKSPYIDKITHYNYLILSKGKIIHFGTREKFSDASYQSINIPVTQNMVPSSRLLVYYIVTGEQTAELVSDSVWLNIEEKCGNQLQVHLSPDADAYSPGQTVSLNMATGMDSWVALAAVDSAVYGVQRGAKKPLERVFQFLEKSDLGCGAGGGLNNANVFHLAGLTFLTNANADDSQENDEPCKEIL
Sequence of Complement component C5 (P01031 678-1676, chain 2 of 2): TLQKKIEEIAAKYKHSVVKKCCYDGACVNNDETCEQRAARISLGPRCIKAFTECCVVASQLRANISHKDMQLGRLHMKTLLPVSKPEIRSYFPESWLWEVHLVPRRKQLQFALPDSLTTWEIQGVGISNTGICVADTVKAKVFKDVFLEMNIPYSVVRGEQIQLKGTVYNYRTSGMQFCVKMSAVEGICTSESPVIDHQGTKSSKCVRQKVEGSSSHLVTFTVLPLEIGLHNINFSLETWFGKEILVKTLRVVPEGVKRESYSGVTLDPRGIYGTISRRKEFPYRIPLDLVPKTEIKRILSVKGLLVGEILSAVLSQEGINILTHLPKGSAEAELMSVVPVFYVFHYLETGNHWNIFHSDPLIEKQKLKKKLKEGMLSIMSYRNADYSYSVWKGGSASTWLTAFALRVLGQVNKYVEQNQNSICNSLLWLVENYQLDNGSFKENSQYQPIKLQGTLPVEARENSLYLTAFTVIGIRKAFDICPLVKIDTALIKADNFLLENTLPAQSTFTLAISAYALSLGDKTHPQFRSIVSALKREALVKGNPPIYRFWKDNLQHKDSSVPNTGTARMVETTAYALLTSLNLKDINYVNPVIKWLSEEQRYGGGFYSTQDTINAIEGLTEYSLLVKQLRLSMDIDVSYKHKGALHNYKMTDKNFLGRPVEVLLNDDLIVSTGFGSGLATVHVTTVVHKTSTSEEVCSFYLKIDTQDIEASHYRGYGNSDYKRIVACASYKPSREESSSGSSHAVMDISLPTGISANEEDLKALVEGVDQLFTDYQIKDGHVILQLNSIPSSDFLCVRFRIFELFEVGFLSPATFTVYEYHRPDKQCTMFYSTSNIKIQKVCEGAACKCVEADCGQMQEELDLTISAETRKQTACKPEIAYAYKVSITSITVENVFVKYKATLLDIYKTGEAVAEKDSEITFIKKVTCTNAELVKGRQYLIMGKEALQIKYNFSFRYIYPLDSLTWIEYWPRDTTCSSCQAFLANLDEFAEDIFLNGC

B1: PGT121-K149 fusion protein (Fab)
chain 1: QMQLQESGPGLVKPSETLSLTCSVSGASISDSYWSWIRRSPGKGLEWIGYVHKSGDTNYSPSLKSRVNLSLDTSKNQVSLSLVAATAADSGKYYCARTLHGRRIYGSENLYFQGSCPDGFSYRSWDDFCCPMVGRCLAPRNGSENLYFQGSEWFTYFYMDVWGNGTQVTVSS
chain 2: QSVLTQPPDISVAPGETARISCGEKSLGSRAVQWYQHRAGQAPSLIIYNNQDRPSGIPERFSGSPDSPFGTTATLTITSVEAGDEADYYCHIWDSRVPTKWVFGGGTTLTVL
For the molecule B1, the Kd was 517 nM.

B2: PGT121-K136 fusion protein (Fab)
chain 1: QMQLQESGPGLVKPSETLSLTCSVSGASISDSYWSWIRRSPGKGLEWIGYVHKSGDTNYSPSLKSRVNLSLDTSKNQVSLSLVAATAADSGKYYCARTLHGRRIYGSENLYFQGTCPDNYREVDGCDPYDCCLTTWCTNSYCTRYIENLYFQGSEWFTYFYMDVWGNGTQVTVSS
chain 2: QSVLTQPPDISVAPGETARISCGEKSLGSRAVQWYQHRAGQAPSLIIYNNQDRPSGIPERFSGSPDSPFGTTATLTITSVEAGDEADYYCHIWDSRVPTKWVFGGGTTLTVL
The molecule B2 yielded a Kd of less than 2.2 nM.
